Source: patent publication US20050065320A1

Tests used:
[1] = biological target: g12 mutant (Env protein) of the HIV-1 isolate 133 (HIV-1 primary isolate 133); assay: capture ELISA, 17b 1 µg/ml
[2] = biological target: g12 mutant (Env protein) of the HIV-1 isolate 133 (HIV-1 primary isolate 133); assay: capture ELISA on lysates and supernatants, F105 1 µg/ml

Substance | signal relative to the native protein [1] [times] | signal relative to the native protein [2] [times]
17b human monoclonal antibody | 3 | –
F105 human monoclonal antibody (NIBSC) | – | < 4.5
